Bridge positions count the residues as written; N and C are the ends. Square brackets hold non-standard residues; d marks the D form. hArg = N=C(N)NCCCC[C@H](N)C(=O)O; Ac5c = NC1(C(=O)O)CCCC1; Dap = NC[C@H](N)C(=O)O; Aib = CC(C)(N)C(=O)O
Legend:
Experiment in all cases: cell-based or functional assay
CYP2D6 = CYP2D6 (Homo sapiens, UniProt P10635)
Saos-2 PTH1R = Saos-2 PTH1R (UniProt Q03431)
[1] = target: PTH receptor 1 on MC3T3-E1 cells (murine) (UniProt P41593)

Sequence of CYP2D6 (P10635 whole entry): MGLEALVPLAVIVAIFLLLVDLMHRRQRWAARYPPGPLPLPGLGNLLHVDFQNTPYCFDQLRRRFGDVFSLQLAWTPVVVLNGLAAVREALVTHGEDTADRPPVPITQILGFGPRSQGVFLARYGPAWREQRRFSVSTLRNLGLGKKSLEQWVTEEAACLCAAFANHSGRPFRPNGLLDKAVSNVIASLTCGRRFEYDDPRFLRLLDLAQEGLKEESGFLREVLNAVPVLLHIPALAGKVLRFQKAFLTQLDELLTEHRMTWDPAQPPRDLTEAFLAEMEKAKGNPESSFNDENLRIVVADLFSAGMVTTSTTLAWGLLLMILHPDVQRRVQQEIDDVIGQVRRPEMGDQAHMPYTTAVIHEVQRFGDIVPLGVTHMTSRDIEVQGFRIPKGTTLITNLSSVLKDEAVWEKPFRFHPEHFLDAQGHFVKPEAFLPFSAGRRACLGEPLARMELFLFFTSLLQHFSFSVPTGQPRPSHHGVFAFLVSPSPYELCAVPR

B1: H-Ac5c-Val-Aib-Glu-Ile-Gln-Leu-Leu-His-Gln-Har-Ala-Dpr( )-Trp-Leu-Asn-Asp( )-NH2 (peptide)
chain: H-[Ac5c]V[Aib]EIQLLHQ[hArg]A[Dap]WLND-NH2
modifications: lactam 13-17
SMILES: CC[C@H](C)[C@H](NC(=O)[C@H](CCC(=O)O)NC(=O)C(C)(C)NC(=O)[C@@H](NC(=O)C1(N)CCCC1)C(C)C)C(=O)N[C@@H](CCC(N)=O)C(=O)N[C@@H](CC(C)C)C(=O)N[C@@H](CC(C)C)C(=O)N[C@@H](Cc1c[nH]cn1)C(=O)N[C@@H](CCC(N)=O)C(=O)N[C@@H](CCCCNC(=N)N)C(=O)N[C@@H](C)C(=O)N[C@H]1CNC(=O)C[C@@H](C(N)=O)NC(=O)[C@H](CC(N)=O)NC(=O)[C@H](CC(C)C)NC(=O)[C@H](Cc2c[nH]c3ccccc23)NC1=O
Question: B1 was tested. Which CYP2D6 activity (% of vehicle), dextrorphan formation rate in human liver microsomes, 10 µM peptide (CYP2D6) did it give?
Answer: Its CYP2D6 activity (% of vehicle), dextrorphan formation rate in human liver microsomes, 10 µM peptide is 101 % of vehicle.

Question: What about the Emax, cAMP efficacy assay in Saos-2 cells (17T, trifluoroacetate salt) (relative to control (SEQ ID NO: 32)) (Saos-2 PTH1R) of the same binder?
Answer: Its Emax, cAMP efficacy assay in Saos-2 cells (17T, trifluoroacetate salt) (relative to control (SEQ ID NO: 32)) is 1.25.

Question: And the pEC50, cAMP efficacy assay in Saos-2 cells (17T, trifluoroacetate salt) (Saos-2 PTH1R)?
Answer: The pEC50, cAMP efficacy assay in Saos-2 cells (17T, trifluoroacetate salt) was 6.11 -log(M).

B2: H-Ac5c-Val-Aib-Glu-Ile-Gln-Leu-Met-His-Gln-Har-Ala-Lys( )-Trp-Leu-Asn-Glu( )-NH2 (peptide)
chain: H-[Ac5c]V[Aib]EIQLMHQ[hArg]AKWLNE-NH2
modifications: lactam 13-17
SMILES: CC[C@H](C)[C@H](NC(=O)[C@H](CCC(=O)O)NC(=O)C(C)(C)NC(=O)[C@@H](NC(=O)C1(N)CCCC1)C(C)C)C(=O)N[C@@H](CCC(N)=O)C(=O)N[C@@H](CC(C)C)C(=O)N[C@@H](CCSC)C(=O)N[C@@H](Cc1c[nH]cn1)C(=O)N[C@@H](CCC(N)=O)C(=O)N[C@@H](CCCCNC(=N)N)C(=O)N[C@@H](C)C(=O)N[C@H]1CCCCNC(=O)CC[C@@H](C(N)=O)NC(=O)[C@H](CC(N)=O)NC(=O)[C@H](CC(C)C)NC(=O)[C@H](Cc2c[nH]c3ccccc23)NC1=O
Question: With B2 as the binder, how does the CYP2D6 activity (% of vehicle), dextrorphan formation rate in human liver microsomes, 10 µM peptide (CYP2D6) read?
Answer: The CYP2D6 activity (% of vehicle), dextrorphan formation rate in human liver microsomes, 10 µM peptide was 85 % of vehicle.

Question: What about the Emax, cAMP efficacy assay in Saos-2 cells (9T, trifluoroacetate salt) (relative to control (SEQ ID NO: 32)) (Saos-2 PTH1R) of the same binder?
Answer: The Emax, cAMP efficacy assay in Saos-2 cells (9T, trifluoroacetate salt) (relative to control (SEQ ID NO: 32)) was 1.03.

Question: What about the pEC50, cAMP efficacy assay in Saos-2 cells (9T, trifluoroacetate salt) (Saos-2 PTH1R) of the same binder?
Answer: Its pEC50, cAMP efficacy assay in Saos-2 cells (9T, trifluoroacetate salt) is 7.85 -log(M).

B3: H-Ac5c-Val-Aib-Glu-Ile-Gln-Leu-Met-His-Gln-Har-Ala-Lys-Trp-NH2 (peptide)
chain: H-[Ac5c]V[Aib]EIQLMHQ[hArg]AKW-NH2
SMILES: CC[C@H](C)[C@H](NC(=O)[C@H](CCC(=O)O)NC(=O)C(C)(C)NC(=O)[C@@H](NC(=O)C1(N)CCCC1)C(C)C)C(=O)N[C@@H](CCC(N)=O)C(=O)N[C@@H](CC(C)C)C(=O)N[C@@H](CCSC)C(=O)N[C@@H](Cc1c[nH]cn1)C(=O)N[C@@H](CCC(N)=O)C(=O)N[C@@H](CCCCNC(=N)N)C(=O)N[C@@H](C)C(=O)N[C@@H](CCCCN)C(=O)N[C@@H](Cc1c[nH]c2ccccc12)C(N)=O
Question: B3 was tested. Which CYP2D6 activity (% of vehicle), dextrorphan formation rate in human liver microsomes, 10 µM peptide (CYP2D6) did it give?
Answer: The CYP2D6 activity (% of vehicle), dextrorphan formation rate in human liver microsomes, 10 µM peptide was 22 % of vehicle.

Question: And the Emax, cAMP efficacy assay in MC3T3-E1 cells [1]?
Answer: Its Emax, cAMP efficacy assay in MC3T3-E1 cells is 4.5 pmol/well.

Question: And the pEC50, cAMP efficacy assay in MC3T3-E1 cells [1]?
Answer: The pEC50, cAMP efficacy assay in MC3T3-E1 cells was 8.4 -log(M).

Question: What about the Emax, cAMP efficacy assay in Saos-2 cells (31T, trifluoroacetate salt) (relative to control (SEQ ID NO: 32)) (Saos-2 PTH1R) of the same binder?
Answer: The Emax, cAMP efficacy assay in Saos-2 cells (31T, trifluoroacetate salt) (relative to control (SEQ ID NO: 32)) was 1.07.

Question: What about the pEC50, cAMP efficacy assay in Saos-2 cells (31T, trifluoroacetate salt) (Saos-2 PTH1R) of the same binder?
Answer: The pEC50, cAMP efficacy assay in Saos-2 cells (31T, trifluoroacetate salt) was 7.66 -log(M).

B4: H-Ac5c-Val-Aib-Glu-Ile-Gln-Leu-Val-His-Gln-Har-Ala-Lys( )-Trp-Leu-Asn-Asp( )-NH2 (peptide)
chain: H-[Ac5c]V[Aib]EIQLVHQ[hArg]AKWLND-NH2
modifications: lactam 13-17
SMILES: CC[C@H](C)[C@H](NC(=O)[C@H](CCC(=O)O)NC(=O)C(C)(C)NC(=O)[C@@H](NC(=O)C1(N)CCCC1)C(C)C)C(=O)N[C@@H](CCC(N)=O)C(=O)N[C@@H](CC(C)C)C(=O)N[C@H](C(=O)N[C@@H](Cc1c[nH]cn1)C(=O)N[C@@H](CCC(N)=O)C(=O)N[C@@H](CCCCNC(=N)N)C(=O)N[C@@H](C)C(=O)N[C@H]1CCCCNC(=O)C[C@@H](C(N)=O)NC(=O)[C@H](CC(N)=O)NC(=O)[C@H](CC(C)C)NC(=O)[C@H](Cc2c[nH]c3ccccc23)NC1=O)C(C)C
Question: With B4 as the binder, how does the CYP2D6 activity (% of vehicle), dextrorphan formation rate in human liver microsomes, 10 µM peptide (CYP2D6) read?
Answer: Its CYP2D6 activity (% of vehicle), dextrorphan formation rate in human liver microsomes, 10 µM peptide is 92 % of vehicle.

Question: And the Emax, cAMP efficacy assay in Saos-2 cells (21T, trifluoroacetate salt) (relative to control (SEQ ID NO: 32)) (Saos-2 PTH1R)?
Answer: Its Emax, cAMP efficacy assay in Saos-2 cells (21T, trifluoroacetate salt) (relative to control (SEQ ID NO: 32)) is 1.4.

Question: And the pEC50, cAMP efficacy assay in Saos-2 cells (21T, trifluoroacetate salt) (Saos-2 PTH1R)?
Answer: The pEC50, cAMP efficacy assay in Saos-2 cells (21T, trifluoroacetate salt) was 6.82 -log(M).

B5: H-Ac5c-Val-Aib-Glu-Ile-Gln-Leu-Met-His-Gln-Har-Ala-Lys-Trp-Leu-Asn-Asn-NH2 (peptide)
chain: H-[Ac5c]V[Aib]EIQLMHQ[hArg]AKWLNN-NH2
SMILES: CC[C@H](C)[C@H](NC(=O)[C@H](CCC(=O)O)NC(=O)C(C)(C)NC(=O)[C@@H](NC(=O)C1(N)CCCC1)C(C)C)C(=O)N[C@@H](CCC(N)=O)C(=O)N[C@@H](CC(C)C)C(=O)N[C@@H](CCSC)C(=O)N[C@@H](Cc1c[nH]cn1)C(=O)N[C@@H](CCC(N)=O)C(=O)N[C@@H](CCCCNC(=N)N)C(=O)N[C@@H](C)C(=O)N[C@@H](CCCCN)C(=O)N[C@@H](Cc1c[nH]c2ccccc12)C(=O)N[C@@H](CC(C)C)C(=O)N[C@@H](CC(N)=O)C(=O)N[C@@H](CC(N)=O)C(N)=O
Question: B5 was tested. Which CYP2D6 activity (% of vehicle), dextrorphan formation rate in human liver microsomes, 10 µM peptide (CYP2D6) did it give?
Answer: Its CYP2D6 activity (% of vehicle), dextrorphan formation rate in human liver microsomes, 10 µM peptide is 21 % of vehicle.

Question: What about the Emax, cAMP efficacy assay in MC3T3-E1 cells [1] of the same binder?
Answer: Its Emax, cAMP efficacy assay in MC3T3-E1 cells is 5.5 pmol/well.

Question: And the agonist potency relative to SEQ ID NO: 2, cAMP in MC3T3-E1 cells [1]?
Answer: Its agonist potency relative to SEQ ID NO: 2, cAMP in MC3T3-E1 cells is 2 to 3 fold weaker.

Question: And the pEC50, cAMP efficacy assay in MC3T3-E1 cells [1]?
Answer: Its pEC50, cAMP efficacy assay in MC3T3-E1 cells is 8.6 -log(M).

Question: And the Emax, cAMP efficacy assay in Saos-2 cells (3T, trifluoroacetate salt) (relative to control (SEQ ID NO: 32)) (Saos-2 PTH1R)?
Answer: Its Emax, cAMP efficacy assay in Saos-2 cells (3T, trifluoroacetate salt) (relative to control (SEQ ID NO: 32)) is 1.06.

Question: What about the pEC50, cAMP efficacy assay in Saos-2 cells (3T, trifluoroacetate salt) (Saos-2 PTH1R) of the same binder?
Answer: Its pEC50, cAMP efficacy assay in Saos-2 cells (3T, trifluoroacetate salt) is 8.04 -log(M).

Question: Which results are given for H-[Ac5c]V[Aib]EIQLLHQ[hArg]AKWLND-NH2 (lactam 13-17; also: acetate and trifluoroacetate salts) [H-Ac5c-Val-Aib-Glu-Ile-Gln-Leu-Leu-His-Gln-Har-Ala-Lys( )-Trp-Leu-Asn-Asp( )-NH2]?
Answer: CYP2D6 activity (% of vehicle), dextrorphan formation rate in human liver microsomes, 10 µM peptide (CYP2D6): 90 % of vehicle; Emax, cAMP efficacy assay in Saos-2 cells (19A/T, acetate/trifluoroacetate salts) (relative to control (SEQ ID NO: 32)) (Saos-2 PTH1R): 1.05; pEC50, cAMP efficacy assay in Saos-2 cells (19A/T, acetate/trifluoroacetate salts) (Saos-2 PTH1R): 7.99 -log(M)
